Assay results from paper PMC5655142, “Anti-diabetic drug binding site in a mammalian KATP channel revealed by Cryo-EM” (eLife, 2017).

Molecular target: the molecule itself
Assay: cryo-EM structure; purified SUR1/Kir6.2 KATP channel in digitonin, 1 mM ATP (no Mg2+) and 1 µM glibenclamide; C4 symmetry imposed; 3.63 Å

B1: rat Kir6.2 (natural protein)
chain: MLSRKGIIPEEYVLTRLAEDPTEPRYRTRERRARFVSKKGNCNVAHKNIREQGRFLQDVFTTLVDLKWPHTLLIFTMSFLCSWLLFAMVWWLIAFAHGDLAPGEGTNVPCVTSIHSFSSAFLFSIEVQVTIGFGGRMVTEECPLAILILIVQNIVGLMINAIMLGCIFMKTAQAHRRAETLIFSKHAVITLRHGRLCFMLRVGDLRKSMIISATIHMQVVRKTTSPEGEVVPLHQVDIPMENGVGGNSIFLVAPLIIYHVIDSNSPLYDLAPSDLHHHQDLEIIVILEGVVETTGITTQARTSYLADEILWGQRFVPIVAEEDGRYSVDYSKFGNTVKVPTPLCTARQLDEDRSLLDALTLASSRGPLRKRSVAVAKAKPKFSISPDSLS
notes: the final model holds residues 32-352, the distal N- and C-termini were not seen in the map; source: INS-1 clone 832/13 cells, infected with recombinant adenovirus, co-expressed with FLAG-SUR1; purified as the channel complex (digitonin, anti-FLAG M2 agarose, FLAG peptide elution)
  stoichiometry N: 4
